# ± gives the uncertainty stated by the source.
# Assay: self-splicing fitness, log relative to wild type (ln ratio); higher = more splicing; Tetrahymena group I intron in knt gene, E. coli kanamycin selection, DiMSum; sequences stand for … in CUCUCU…GGAGGGAAAAGUUAUCAGGCAUGCACCUGGUAGCUAGUCUUUAAACCAAUAGAUUGCAUCGGUUUAAAAGGCAAGACCGUCAAAUUGCGGGAAAGGGGUCAACAGCCGUUCAGUACCAAGUCUCAGGGGAAACUUUGAGAUGGCCUUGCAAAGGGUAUGGUAAUAAGCUGACGGACAUGGUCCUAACCACGCAGCCAAGUCCUAAGUCAACAGAUCUUCUGUUGAUAUGGAUGCAGUUCACAGACUAAAUGUCGGUCGGGGAAGAUGUAUUCUUCUCAUAAGAUAUAGUCGGACCUCUCCUUAAUGGGAGCUAGCGGAUGAAGUGAUGCAACACUGGAGCCGCUGGGAACUAAUUUGUAUGCGAAAGUAUAUUGAUUAGUUUUGGAGUACUCGUGGUCG
# Procedure, shortened: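 Library with all eight P1ex-region intron nucleotides randomised, intron inside the knt kanamycin-resistance gene on pET-22b(+), in E. coli BL21(DE3). Cells grew overnight at 37°C or 30°C on LB agar with or without 25 μg/mL kanamycin (plus 100 μg/mL carbenicillin, 50 μM IPTG, 0.2% rhamnose), in six replicate transformations. Pooled colonies were amplicon-sequenced on Illumina HiSeq 2500. DiMSum fitness is the error-weighted combination of wild-type-normalised replicate fold changes, kanamycin versus none.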
sequence,measurement,setting,value
CGAAAGCAAUAUUACGUCGA,self-splicing fitness (ln),30 °C,-3.02 ± 0.17
same,self-splicing fitness (ln),37 °C,-1.51 ± 0.14
GUUUAGCAAUAUUACGCAGG,self-splicing fitness (ln),30 °C,-1.36 ± 0.2
same,self-splicing fitness (ln),37 °C,-2.04 ± 0.34
GUUAAGCAAUAUUACGGGCG,self-splicing fitness (ln),30 °C,-1.44 ± 0.1
same,self-splicing fitness (ln),37 °C,-0.388 ± 0.11
UAGUAGCAAUAUUACGGCCC,self-splicing fitness (ln),30 °C,-2.09 ± 0.17
same,self-splicing fitness (ln),37 °C,-1.92 ± 0.37
GGUCAGCAAUAUUACGAGGG,self-splicing fitness (ln),37 °C,-2.35 ± 0.25
UUUGAGCAAUAUUACGCGUA,self-splicing fitness (ln),37 °C,0.0632 ± 0.24
ACCGAGCAAUAUUACGAGCA,self-splicing fitness (ln),30 °C,-2.63 ± 0.13
same,self-splicing fitness (ln),37 °C,-1.99 ± 0.13
CACUAGCAAUAUUACGAGAU,self-splicing fitness (ln),30 °C,-3.87 ± 0.39
same,self-splicing fitness (ln),37 °C,-2.97 ± 0.2
GUAUAGCAAUAUUACGUAAA,self-splicing fitness (ln),30 °C,-2.75 ± 0.31
same,self-splicing fitness (ln),37 °C,-1.66 ± 0.31
AGAAAGCAAUAUUACGUUCA,self-splicing fitness (ln),30 °C,-0.142 ± 0.084
same,self-splicing fitness (ln),37 °C,0.14 ± 0.12
GUUCAGCAAUAUUACGCUUC,self-splicing fitness (ln),30 °C,-0.641 ± 0.11
same,self-splicing fitness (ln),37 °C,-0.661 ± 0.14
AGCCAGCAAUAUUACGACAG,self-splicing fitness (ln),30 °C,-3.67 ± 0.27
same,self-splicing fitness (ln),37 °C,-2.74 ± 0.27
UGACAGCAAUAUUACGUCAC,self-splicing fitness (ln),30 °C,-3.74 ± 0.17
same,self-splicing fitness (ln),37 °C,-3.16 ± 0.23
AACAAGCAAUAUUACGCCAA,self-splicing fitness (ln),30 °C,-2.32 ± 0.14
same,self-splicing fitness (ln),37 °C,-2.55 ± 0.16
GUCCAGCAAUAUUACGUCAA,self-splicing fitness (ln),30 °C,-1.23 ± 0.12
same,self-splicing fitness (ln),37 °C,-1.99 ± 0.14
UAGUAGCAAUAUUACGAGAU,self-splicing fitness (ln),30 °C,-2.69 ± 0.13
same,self-splicing fitness (ln),37 °C,-2.32 ± 0.19
UGCGAGCAAUAUUACGUUGU,self-splicing fitness (ln),30 °C,-2.79 ± 0.18
same,self-splicing fitness (ln),37 °C,-3.05 ± 0.27
CCAGAGCAAUAUUACGACAA,self-splicing fitness (ln),37 °C,-2.03 ± 0.45
CUACAGCAAUAUUACGUUCC,self-splicing fitness (ln),30 °C,-2.48 ± 0.22
ACGUAGCAAUAUUACGUCAA,self-splicing fitness (ln),30 °C,-3.44 ± 0.27
same,self-splicing fitness (ln),37 °C,-2.34 ± 0.19
UCCAAGCAAUAUUACGUAGA,self-splicing fitness (ln),30 °C,-0.92 ± 0.06
same,self-splicing fitness (ln),37 °C,0.437 ± 0.092
ACCGAGCAAUAUUACGUAUG,self-splicing fitness (ln),30 °C,-3.56 ± 0.15
same,self-splicing fitness (ln),37 °C,-2.28 ± 0.15
GCCUAGCAAUAUUACGGUGA,self-splicing fitness (ln),30 °C,-1.09 ± 0.067
same,self-splicing fitness (ln),37 °C,-0.113 ± 0.073
UCUGAGCAAUAUUACGAUGC,self-splicing fitness (ln),37 °C,-0.729 ± 0.36
CCACAGCAAUAUUACGAACG,self-splicing fitness (ln),30 °C,-0.247 ± 0.07
same,self-splicing fitness (ln),37 °C,-0.267 ± 0.075
GGCUAGCAAUAUUACGCAUG,self-splicing fitness (ln),30 °C,-1.11 ± 0.11
same,self-splicing fitness (ln),37 °C,-1.04 ± 0.11
GCUUAGCAAUAUUACGACGG,self-splicing fitness (ln),30 °C,-1.89 ± 0.17
same,self-splicing fitness (ln),37 °C,-0.935 ± 0.18
CUCAAGCAAUAUUACGUCCA,self-splicing fitness (ln),30 °C,-2.66 ± 0.32
same,self-splicing fitness (ln),37 °C,-1.51 ± 0.27
AGGAAGCAAUAUUACGUAUC,self-splicing fitness (ln),30 °C,-3.45 ± 0.22
same,self-splicing fitness (ln),37 °C,-2.88 ± 0.15
GACAAGCAAUAUUACGUGCC,self-splicing fitness (ln),30 °C,-1.69 ± 0.14
same,self-splicing fitness (ln),37 °C,-1.21 ± 0.17
GGUCAGCAAUAUUACGUCAC,self-splicing fitness (ln),37 °C,-1.77 ± 0.39
ACCCAGCAAUAUUACGUGUA,self-splicing fitness (ln),30 °C,-1.38 ± 0.06
same,self-splicing fitness (ln),37 °C,-0.689 ± 0.064
AAAAAGCAAUAUUACGUUGA,self-splicing fitness (ln),30 °C,-2.63 ± 0.11
same,self-splicing fitness (ln),37 °C,-1.48 ± 0.12
CGUGAGCAAUAUUACGUCGG,self-splicing fitness (ln),30 °C,-0.475 ± 0.11
same,self-splicing fitness (ln),37 °C,-0.606 ± 0.12
UAUAAGCAAUAUUACGGCAU,self-splicing fitness (ln),30 °C,-0.623 ± 0.077
same,self-splicing fitness (ln),37 °C,-0.223 ± 0.098
CAUCAGCAAUAUUACGAGUG,self-splicing fitness (ln),30 °C,-2.26 ± 0.11
same,self-splicing fitness (ln),37 °C,-0.515 ± 0.1
GCAUAGCAAUAUUACGUCGG,self-splicing fitness (ln),30 °C,-2.24 ± 0.14
same,self-splicing fitness (ln),37 °C,-1.47 ± 0.13
GCCAAGCAAUAUUACGCUUG,self-splicing fitness (ln),30 °C,-3.72 ± 0.12
same,self-splicing fitness (ln),37 °C,-2.41 ± 0.14
GAAAAGCAAUAUUACGAACA,self-splicing fitness (ln),30 °C,-0.893 ± 0.1
same,self-splicing fitness (ln),37 °C,0.0828 ± 0.12
UCCGAGCAAUAUUACGGGUA,self-splicing fitness (ln),30 °C,-1.06 ± 0.13
same,self-splicing fitness (ln),37 °C,-0.229 ± 0.096

# — the supplement of paper PMC7877785
